Data as given in publication PMC6908968 (Cell, 2019).
Where a chain is given by its changes, count along the chain named.

T1: thermolysin-cleaved EBOV GP on Jurkat-GP cells (cleaved GP) (Zaire ebolavirus, Makona (GP1 core …, strain))
T1 chain 1: not shown
T1 chain 2: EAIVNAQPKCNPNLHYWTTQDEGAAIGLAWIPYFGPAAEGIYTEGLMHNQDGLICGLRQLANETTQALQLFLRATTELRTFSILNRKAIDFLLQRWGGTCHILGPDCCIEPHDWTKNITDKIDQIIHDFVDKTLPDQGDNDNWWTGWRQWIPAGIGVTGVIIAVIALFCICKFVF

B1: 5.6.c3151 (antibody, V domains shown)
VH: EVQLVESGGGVVQPGGSLRLSCAASGFDFDDYPMNWVRQAPGKGLELVFLISGDGGSTYSADSVKGRFTISRDNSKNSLYLQMNSLRTEDTALYYCAKDAVDNSGLYYYGMDVWGQGTTVIVSS
VL: DIQMTQSPSSVSASVGDRVTINCRASQGISGWLAWYQQKPGKAPKLLIYAASSLQSGVPSRFSGSGSGTDFTLAISSLQPEDLATYYCQQTHSFPFTFGPGTKVGIK
B2: 5.6.c3557 (antibody, V domains shown)
VH: QVQLVESGGGVVQPGRSLRLSCAASGFSITNYAMHWVRQAPGRGLEWVALISYDGINQYYADSVKGRFTFSRDNSKNTLYLQMNSLRLDDTAVYYCARDPASPSDIFQDAFDIWGQGTTVIVSS
VL: DIQMTQSPSSLSASVGDRVTITCRASQDISGWLAWYQQKPEKAPRSLIYATSSLQSGVPSRFSGSGSGTDFTLTISSLQPEDFATYYCQQYHSYPLTFGGGTKIQIK
B3: 5.6.c3166 (antibody, V domains shown)
VH: EVHLVESGGGLVQPGGSLRLSCAASGFSFNTHWMNWVRQAPGKGLEWVANIKQNGGEKYYVDSVKGRFTISRDNAKNTLFLQMNSLRGDDTAVYYCARGPPPAAPEDLFYNYTMDVWGQGTTVTVSS
VL: EIVMTQSPATLSVSPGERATLSCRASQSVINHLAWYQQKPGQTPRLLIYGASTRATGIPARFSGSGSGTEFTLTISSLQSEDFAVYFCQQYNTWPPFTFGGGTKVEIK
B4: 5.6.c3412 (antibody, V domains shown)
VH: QIQLVESGGGVVQPVRSLRLTCAASGFTFSQYGMHWVRQAPGKGLEWVAVISYDGTQKYYSDSVKGRFTISRDNAKNTLSLQMNGLRAEDTAVYYCAKGFLERNFDLWSGSYSDSGWRGPYYGMDFWGQGTTVIVSS
VL: QTVVTQEPSFSVSPGGTVTITCALSSGSVSASLYPSWYQQTPGQAPRTLIYSTNTRSSGVPDRFSGSILGNKAALTITGAQADDESDYYCVLFMSSGIYVFGTGTKVTVL
B5: 5.6.c3250 (antibody, V domains shown)
VH: QVQLVESGGGLVKPGGSLRLSCAASGFTFSDYDMSWIRQAPGKGLEWISYISSSGTTIYDADSVKGRFTISRDNAKNSLSLQVNSLRAEDTAVYYCARNVEQIVGATLDYWGQGTLVTVSS
VL: EIVLTQSPATLSLSPGERATLSCRASQSISSFLAWYQQKLGQAPRLLIFDASNRATGIPARFSGSGSGTDFTLTISSLEPEDFAVYYCHHWTFGQGTKVEIK
B6: 5.6.c3206 (antibody, V domains shown)
VH: QVQLKESGPGLVKPSQTLSLTCSVSGGAISNGGYCYTWIRQRPGKGLESIGYMHYSGSPYYNPSLKSRVTIYVDTSKNQFSLKLSSVTAADTAVYYCARGLLWFGESPFYYFDYWGQGTLVTVSS
VL: QSVLTQPPSVSGAPGQRVTISCTGSSSNIGAGYDVHWYQQLPGTAPKLLIYGNSNRPSGVPDRFSGSKSGTSASLAITGLQAEDEADYYCQSCDSSLSVVFGGGTKLTVL
B7: 5.6.c3295 (antibody, V domains shown)
VH: EVQLVESGGDLVQPGGSLRLSCAASGFTVNANYLGWVRQTPGKGLEWVSLIYSGSGSTYYADSVKGRFTLSRDSSKNTLFLHMNSLRPEDTAVYYCARAGGCGGDCYSYYFDYWGRGTLVTVSS
VL: DIQMTQSPSTLSASVGDRVTITCRASQSISRWLAWYQQKPGKAPKLLIYRASSLQNGVPSRFSGSGSGTEFTLTISGLQPDDFGIYYCQEYSSRYTFGQGTQLEIK
B8: 5.6.c3236 (antibody, V domains shown)
VH: QVQLLESGPGLVKPSETLSLTCAVSGGSVSSNTHFWSWIRQPPGKGLEWIGYTLSSGSTAYNPSLKSRVSLSVDTSKNHFSLKLTSVTAADTAVYYCAGTVIQGVVSFDWFDPWGQGTLVTVSS
VL: DIQMTQSPSSLSASVGDRVTITCRASQSINSYLNWYQQRPGKAPKLLIYTTSNLQSGVPSRFSGSGSGTDFTLTISSLQPEDFATYYCQQSYSTPLTFGGGTKVEIK
B9: 5.6.c3507 (antibody, V domains shown)
VH: EVQLVESGGGVVQPGGSLRLSCAASGFTFDDYGMHWVRQAPGKGLEWVSFISGDGYSTYYGDSVKGRFTISRDKSKNSLYLQMNSLRTEDTAFYYCAKDGGSTLTTLLYNWFDSWGQGTLVTVSS
VL: B8 VL with S31M, R39K, L46V, T50G, T51A, N53S, T94I, L96V, G100P, E105D
B10: 5.6.c3397 (antibody, V domains shown)
VH: QVQLQESGPGLVKPSETLSLTCTVSGGSISTYYWSWIRQTPGKGLECIGYINYFGSTNYNPSLKSRVTISIDTSKNQFSLKLSSVTAADTAVYYCARHYGVGTYSGGWFDPWGQGTLVTVSS
VL: DIQMTQSPSSLSASVGDRVTVTCRASQRINSFLNWYQQKPGKAPKLLIYAASSLQSGVPSRFSGTGSGTDFTLTISSLQPEDFATYYCQQSYSSPRTFGQGTKVEIR
B11: 5.6.c3191 (antibody, V domains shown)
VH: QVQLAQSGAEVKKPGASVKVSCKSSGYNFTTHGFNWVRQVPGQGLEWMGWISAYNADTNYAQKFQGRLTLTTETSSNTAYMELRSLTSDDTAVYYCARGEEYSTLYFYGMDVWGQGTTVTVSS
VL: DIQMTQSPSSVSASVGDRVTITCRASQGISIWLAWYQQKPGKAPKLLIYGASTLQSGVPSRFSGSGSGADYTLTINSLQPEDFATYFCQQAHSFPYTFGQGTKLEIR
B12: 5.6.c3168 (antibody, V domains shown)
VH: EVQLVESGGGLVQPGGSLRLSCAASGFTLSNYDMNWVRQAPGKRLEWVSYISSSGSTTYYVDSVKGRFTISRDNAKNSLYLQMNSLRAEDTAVYYCARGHNNWFLYFDSWGQGTLVTVSS
VL: EILMTQSPATLSVSPGERATLSCRASQSVSSNLAWYQQVPGQAPRLLISDASTRATGIPARFSGSGSGTEFTLTINSLQSEDFAVYYCQQYNDWPGTFGQGTKLEIK
B13: 5.6.c3362 (antibody, V domains shown)
VH: QLQLQQSGPGLVKPSETLSLTCNVSGGSISSSSTYSWGWIRQPPGKGLEWIGNIYYSGSTYYNPSLKSRVTISVDTSKNQFSLKLSSVTAADTAVYYCARSFRGPTGAFYYYSYAMDVWGRGTTVTVSS
VL: SSELTQDPAVSVALGQTVRITCQGDSLRTYYASWYQQKPGQAPVLVIYGKKNRPSGIPDRFSGSSSGNTASLTITGAQAEDEADYYCNSQDSSGDLVLFGGGTKVTAL
B14: 5.6.c3221 (antibody, V domains shown)
VH: QEELVESGGGVVQPGRSLRLSCAASTFTFSIYAMHWVRQAPGKGLEWVAVISYDGSNRYYADSVKGRFTISRDNSKNTVYLQMNSLRAEDTAVYFCAKDLGSNGWYYFDSWGQGTLVTVSS
VL: EIVLTQSPGTLSLSPGERATLSCRASQSVSSRYLAWYQQKPGQAPRLLIYGVSSRATGVPDRFSGSGSGTDFTLTISRLEPEDFAVYYCQHYGSSPWRPFGQGTKLEIK
B15: 5.6.c3479 (antibody, V domains shown)
VH: QVHLVESGGGLVKPGGSLRLSCSVSGFAFSDYYMTWIRQAPGKGLEWVSYISGDGGSIYYADSVKGRFTISRDNAKKSLYLQLNSLRADDTAVYYCARDRCDRDQLLCYYYYGMDVWGQGTTVTVSS
VL: QSVLTQPPSVSAAPGQKVTISCSGSSSNIGNNYVSWYQQLPGTAPKLLIYDNNKRPSGIPDRFSGSKSGTSATLDITGLQTGDEADYYCGTWDNSLIAGVFGGGTKLTVL
B16: 5.6.c3225 (antibody, V domains shown)
VH: EVQLVESGGGLVKPGGSLRLSCAASGFTFSSYTMNWVRQAPGKGLEWVSFISSTSRYIHYADSVKGRFTISRDNAKNSLFLQINSLRDEDTAVYFCARESVDDTSMLYYGLDVWGQGTTVTVSS
VL: DIQMTQSPSSLSASVGGRVTITCRASQSISSSLSWYQQKPGKAPKFLIYGASTLESGVPSRFSGSGSGTDFTLTISSLQPEDFATYFCQQSHSLPWTFGQGTKVEIK
B17: 5.6.c3508 (antibody, V domains shown)
VH: QVQLEQSGAEVKKPGASVKVSCQAAGYTFTSYGISWVRQAPGQGLEWMGWISADNGNTKYAQNLQARVTMTTDTSTSTAYMEVRRLRSDDTAVYYCARDSGDLSSLLYYGMDVWGQGTTVTVSS
VL: DIQLTQSPSFLSASVGDRVTITCRASQGISSYLAWYQQKPGKAPKLLIDAASTLQSGVPSRISGSRSGTEYTLTISSLQPEDFATYYCQQLNNFPFTFGPGTKVDIK
B18: 5.6.c3197 (antibody, V domains shown)
VH: QVQVVESGGGVVQPGKSLRLSCAASGFTFSSYGMHWVRQAPGKGLEWVAFIAYDGSNEYYADSVKGRFTISRDNSKITLYLQMNSLRAEDTAMYYCAKEGAGHDALYYYGMDVWGQGTTVTVSS
VL: DIQMTQSPSSVSASVGDRVTITCRASQGISFWLAWYQQKPGKAPELLISAASSLQSGVPSRFSGSGSGTDFTLTISSLQPEDFATYYCLQAHSFPYTFGQGTKLEIK
B19: 5.6.c3360 (antibody, V domains shown)
VH: EVQVVESGGGLVKPGGSLRLSCAASGFSFSIYSMNWVRQAPGKGLEWVSSITGSSSYTNYAGSVKGRFTISRDNAKNSLYLQMNSLRADDTAVYYCARDGAVDTDIYYYGMDVWGQGTTVTVSS
VL: B18 VL with S10F, V15I, G28D, F31S, E45T, S49Y, A51T, S53T, Y96R, K103Q

Columns and labels:
[1] = biological target: T1, thermolysin-cleaved EBOV GP on …
[2] = biological target: EBOV GP ectodomain residues 1-636 (GPec) (Zaire ebolavirus, strain  …, UniProt Q05320)

Binder | binding result [1] | binding result [2]
B1 | binds | binds
B2 | binds | binds
B3 | binds | binds
B4 | binds | binds
B5 | binds | binds
B6 | binds | binds
B7 | binds | binds
B8 | binds | binds
B9 | binds | binds
B10 | binds | binds
B11 | binds | binds
B12 | binds | binds
B13 | binds | binds
B14 | binds | binds
B15 | binds | binds
B16 | binds | binds
B17 | binds | binds
B18 | binds | binds
B19 | binds | binds
